Measured values from article PMC12453405.

Legend:
Experiment in all cases: quartz crystal microbalance (QCM); purified N protein injected first onto the coated quartz crystal, then GST, then Grb2-GST; PBS pH 7.4, flow 60 μl/min; Tris-HCl pH 8.0 between injections; binding ratio = amplitude difference of Grb2-GST before and after binding over the amplitude of N protein
[1] = target: PEDV-N (His-fused N protein of Alphacoronavirus PEDV) (PEDV)
[2] = target: mPDCoV-N (P61A/P292A) (porcine deltacoronavirus (PDCoV))
[3] = target: wPDCoV-N (His-fused PDCoV N protein) (porcine deltacoronavirus (PDCoV))

Grb2-GST (pGEX-Grb2) (from UniProt B6E241 1-217) (natural protein)
binding ratio [1]: 23.5% | binding ratio [2]: 19.7% | binding ratio [3]: 31.6%
